Starred links: 1 amine or outer side, 2 acyl side, 3 side chain; linkers in the order of their positions; H or OH if unused. Positions of bridges follow the written chain, without caps; N, C: chain ends. Non-standard residues stand in square brackets, D forms with d. dLys(N3) = [N-]=[N+]=NCCCC[C@@H](N)C(=O)O; NMeW = CN[C@@H](Cc1c[nH]c2ccccc12)C(=O)O; mXylylene = c1cc(C[*:1])cc(C[*:2])c1; NMeH = CN[C@@H](Cc1c[nH]cn1)C(=O)O; NMeR = CN[C@@H](CCCNC(=N)N)C(=O)O; NMeF = CN[C@@H](Cc1ccccc1)C(=O)O; dNMeF = CN[C@H](Cc1ccccc1)C(=O)O; Nle = CCCC[C@H](N)C(=O)O; Pra = C#CC[C@H](N)C(=O)O
How the values were obtained:
Test in all cases: cell-based or functional assay
[1] = biological target: human recombinant MC4R (CHO-K1/Gα15 stable cell line, GenScript) (human, UniProt P32245 1-332)
Sequence of human recombinant MC4R (CHO-K1/Gα15 stable cell line, GenScript) (P32245 whole entry): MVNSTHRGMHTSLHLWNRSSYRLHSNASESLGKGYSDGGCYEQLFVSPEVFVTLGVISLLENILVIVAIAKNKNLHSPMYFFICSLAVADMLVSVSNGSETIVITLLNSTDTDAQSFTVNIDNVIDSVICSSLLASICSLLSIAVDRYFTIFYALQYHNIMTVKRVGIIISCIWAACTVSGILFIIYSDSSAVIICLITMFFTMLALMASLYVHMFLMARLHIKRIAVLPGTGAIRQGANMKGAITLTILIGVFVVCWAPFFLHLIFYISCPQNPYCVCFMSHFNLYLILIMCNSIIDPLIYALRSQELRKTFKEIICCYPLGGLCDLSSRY

[2] = biological target: human recombinant MC3R (CHO-K1/Gα15 stable cell line, GenScript) (human, UniProt P41968 1-323)
Sequence of human recombinant MC3R (CHO-K1/Gα15 stable cell line, GenScript) (P41968 whole entry): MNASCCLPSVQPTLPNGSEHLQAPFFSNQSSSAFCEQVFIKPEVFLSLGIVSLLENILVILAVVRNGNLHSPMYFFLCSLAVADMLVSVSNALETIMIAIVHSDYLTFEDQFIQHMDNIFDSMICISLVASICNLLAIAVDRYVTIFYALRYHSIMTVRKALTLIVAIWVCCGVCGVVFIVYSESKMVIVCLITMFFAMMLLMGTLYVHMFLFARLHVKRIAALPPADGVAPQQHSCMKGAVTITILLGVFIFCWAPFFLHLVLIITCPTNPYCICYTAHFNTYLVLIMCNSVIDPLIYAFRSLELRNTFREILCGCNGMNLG

[3] = biological target: human recombinant MC1R (CHO-K1 stable cell line, GenScript) (human, UniProt Q01726 1-317)
Sequence of human recombinant MC1R (CHO-K1 stable cell line, GenScript) (Q01726 whole entry): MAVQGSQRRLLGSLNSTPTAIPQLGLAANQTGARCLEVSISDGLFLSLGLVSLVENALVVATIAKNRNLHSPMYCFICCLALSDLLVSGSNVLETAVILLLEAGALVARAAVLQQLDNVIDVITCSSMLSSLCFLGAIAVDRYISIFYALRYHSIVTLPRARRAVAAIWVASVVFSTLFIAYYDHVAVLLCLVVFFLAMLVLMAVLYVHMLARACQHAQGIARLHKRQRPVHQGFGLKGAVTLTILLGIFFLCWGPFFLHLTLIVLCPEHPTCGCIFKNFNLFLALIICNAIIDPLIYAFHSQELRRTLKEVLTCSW

[4] = biological target: human recombinant MC5R (CHO-K1/Ga15 stable cell line, GenScript) (human, UniProt P33032 1-325)
Sequence of human recombinant MC5R (CHO-K1/Ga15 stable cell line, GenScript) (P33032 whole entry): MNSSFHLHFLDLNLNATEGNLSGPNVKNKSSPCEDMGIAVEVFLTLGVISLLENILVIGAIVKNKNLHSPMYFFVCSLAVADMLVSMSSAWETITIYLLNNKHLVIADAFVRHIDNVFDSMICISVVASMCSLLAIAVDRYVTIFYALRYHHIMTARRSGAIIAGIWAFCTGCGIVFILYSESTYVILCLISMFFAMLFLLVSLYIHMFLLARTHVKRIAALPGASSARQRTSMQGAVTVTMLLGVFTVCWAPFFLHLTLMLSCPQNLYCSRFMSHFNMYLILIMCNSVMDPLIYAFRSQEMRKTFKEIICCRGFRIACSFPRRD

| Binder | MC4R IC50 [1] [nM] | MC3R IC50 [2] [nM] | MC1R IC50 [3] [nM] | MC5R IC50 [4] [nM] |
| --- | --- | --- | --- | --- |
| Ac-EHFRWGC-NH2 (bridge N-7; not fully specified (bridges); printed as Cyclo(-Ac-Glu-His-Phe-Arg-Trp-Gly-Cys)-NH2) [KR-012] | 16 | 5570 | 20 | – |
| Ac-MEHFRWGKPV-NH2 [KR-003] | 40.5 | 289 | 0.13 | 315 |
| {CH2CO}-EHFRWC-NH2 (thioether N-6; SMILES N=C(N)NCCC[C@@H]1NC(=O)[C@H](Cc2ccccc2)NC(=O)[C@H](Cc2c[nH]cn2)NC(=O)[C@H](CCC(=O)O)NC(=O)CSC[C@@H](C(N)=O)NC(=O)[C@H](Cc2c[nH]c3ccccc23)NC1=O) [KR-011] | 104 | > 50000 | 128 | – |
| Ac-SYSMEHFR[NMeW]GKPV-NH2 [KR-024] | – | 515 | 0.88 | – |
| Ac-SYSMEHF[NMeR]WGKPV-NH2 [KR-023] | – | 13400 | 21.2 | 4540 |
| Ac-YSMEHFRWGKPV-NH2 [KR-001] | 87.6 | 199 | 0.061 | 84.4 |
| Ac-SYSME[NMeH]FRWGKPV-NH2 [KR-021] | – | 445 | – | 225 |
| Ac-SYSMEH[NMeF]RWGKPV-NH2 [KR-022] | – | > 50000 | > 200 | 698 |

Now from value to binder:

| MC4R IC50 [1] [nM] | MC3R IC50 [2] [nM] | MC1R IC50 [3] [nM] | MC5R IC50 [4] [nM] | Binder |
| --- | --- | --- | --- | --- |
| – | – | 0.124 | 257 | Ac-[Nle]CH[dF]RWC-NH2 (linker 2-7 via mXylylene) [KR-040] |
| 59.6 | 276 | 0.36 | 404 | Ac-[Nle]EHFRWGK-NH2 (SMILES CCCC[C@H](NC(C)=O)C(=O)N[C@@H](CCC(=O)O)C(=O)N[C@@H](Cc1c[nH]cn1)C(=O)N[C@@H](Cc1ccccc1)C(=O)N[C@@H](CCCNC(=N)N)C(=O)N[C@@H](Cc1c[nH]c2ccccc12)C(=O)NCC(=O)N[C@@H](CCCCN)C(N)=O) [KR-035] |
| – | > 50000 | 17.8 | 1080 | Ac-SYSMEH[dNMeF]RWGKPV-NH2 [KR-025] |
| 30.9 | – | 16.5 | 161 | Ac-[Nle][dLys(N3)]H[dF]RW[Pra]K-NH2 (triazole 2-7; not fully specified; printed as Ac-Nle-[DLys(N3)-His-DPhe-Arg-Trp-Pra]-Lys-NH2) [KR-069] |
| 194 | 1330 | – | 489 | Ac-[Nle]CH[dF]RCW-NH2 (linker 2-6 via mXylylene) [KR-032] |
| 40.6 | 328 | 0.88 | 289 | Ac-[Nle]EHFRWGKC-NH2 (not fully specified (bridges); printed as -Cyclo(-Ac-Nle-Glu-His-Phe-Arg-Trp-Gly-Lys-Cys)-NH2; also: cyclo(...) including Ac, ring type and places not given here) [KR-036] |
